Target: TtCST WT (Ctc1-Stn1-Ten1, co-expressed with p50) (Tetrahymena, UniProt A0PGB2;Q6JXI5;D2CVN7;D2CVN8 1-622;1-373;1-164;1-422)
Experiment: EMSA

Chain of TtCST WT (Ctc1-Stn1-Ten1, co-expressed with p50) (A0PGB2 whole entry, chain 1 of 4): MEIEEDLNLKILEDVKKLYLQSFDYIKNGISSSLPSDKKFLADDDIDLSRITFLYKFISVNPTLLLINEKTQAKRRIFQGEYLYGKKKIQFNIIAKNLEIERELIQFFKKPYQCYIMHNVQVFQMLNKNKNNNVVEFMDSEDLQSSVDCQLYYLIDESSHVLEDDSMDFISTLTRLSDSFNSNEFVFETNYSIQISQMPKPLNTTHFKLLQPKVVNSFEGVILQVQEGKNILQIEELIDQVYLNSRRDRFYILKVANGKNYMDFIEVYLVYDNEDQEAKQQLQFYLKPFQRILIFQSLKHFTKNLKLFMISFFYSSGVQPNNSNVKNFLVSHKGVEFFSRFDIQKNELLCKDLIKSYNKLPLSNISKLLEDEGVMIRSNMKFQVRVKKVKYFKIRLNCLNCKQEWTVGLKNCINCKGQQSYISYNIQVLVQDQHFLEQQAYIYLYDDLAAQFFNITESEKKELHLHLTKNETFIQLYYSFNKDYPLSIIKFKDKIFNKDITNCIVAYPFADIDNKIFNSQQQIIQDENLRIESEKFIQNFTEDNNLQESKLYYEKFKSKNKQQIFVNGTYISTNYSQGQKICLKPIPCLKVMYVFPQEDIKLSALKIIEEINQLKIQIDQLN
Chain of TtCST WT (Ctc1-Stn1-Ten1, co-expressed with p50) (Q6JXI5 whole entry, chain 2 of 4): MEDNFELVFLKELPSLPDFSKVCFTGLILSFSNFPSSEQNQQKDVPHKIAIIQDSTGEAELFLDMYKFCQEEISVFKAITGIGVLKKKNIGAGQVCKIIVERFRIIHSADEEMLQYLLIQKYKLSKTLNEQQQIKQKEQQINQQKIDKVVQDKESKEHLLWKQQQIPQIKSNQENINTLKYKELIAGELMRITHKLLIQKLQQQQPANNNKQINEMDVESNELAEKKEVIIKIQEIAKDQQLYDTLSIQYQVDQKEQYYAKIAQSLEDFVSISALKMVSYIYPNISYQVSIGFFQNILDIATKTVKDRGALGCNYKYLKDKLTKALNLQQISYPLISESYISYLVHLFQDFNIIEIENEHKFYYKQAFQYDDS
Chain of TtCST WT (Ctc1-Stn1-Ten1, co-expressed with p50) (D2CVN7 whole entry, chain 3 of 4): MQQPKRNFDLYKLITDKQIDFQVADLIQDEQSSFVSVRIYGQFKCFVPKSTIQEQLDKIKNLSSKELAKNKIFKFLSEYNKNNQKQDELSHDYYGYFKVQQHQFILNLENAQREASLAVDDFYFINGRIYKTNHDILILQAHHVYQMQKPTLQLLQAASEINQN
Chain of TtCST WT (Ctc1-Stn1-Ten1, co-expressed with p50) (D2CVN8 whole entry, chain 4 of 4): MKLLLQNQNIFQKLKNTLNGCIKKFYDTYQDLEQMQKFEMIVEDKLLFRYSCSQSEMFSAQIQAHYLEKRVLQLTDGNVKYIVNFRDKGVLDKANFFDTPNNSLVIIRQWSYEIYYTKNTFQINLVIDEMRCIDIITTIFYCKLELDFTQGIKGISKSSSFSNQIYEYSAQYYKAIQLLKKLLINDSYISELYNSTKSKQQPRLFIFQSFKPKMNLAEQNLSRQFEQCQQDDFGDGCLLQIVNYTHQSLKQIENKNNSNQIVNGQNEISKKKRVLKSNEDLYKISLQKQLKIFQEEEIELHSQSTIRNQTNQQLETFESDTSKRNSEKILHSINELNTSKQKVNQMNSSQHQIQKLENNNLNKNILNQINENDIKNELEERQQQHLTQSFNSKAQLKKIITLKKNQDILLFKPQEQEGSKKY

GTTGGGGTTGGGGTTGGGGTTGGGGTTGGG (ssDNA) [d(GTTGGG)5] gave a Kd of 180 nM.

Source: PMC9728385
